Here are results for one molecule from patent JP2016135753A.

The assay deals with SLA-1*0401/β2M (HEK293トランスフェクタント細胞表面) (pig) (UniProt Q07717). The experiment in a line: flow cytometry of hybridoma supernatant on SLA-1*0401/β2M HEK293 transfectants.

B1: モノクローナル抗体X2F6 (antibody, mouse IgG2a, kappa, V domains shown)
VH: QVQLQQSGAELVKPGASVKLSCKASGYTFTSYDINWVRQRPEQGLEWIGWIYPGDGSTKYNEKFKGKATLTTDKSSSTAYMQLSRLTSEDSAVYFCASPYYYGSSPFAYWGQGTLVTVSA
VL: DIQMTQSPASLSASVGETVTITCRASENIYSYLAWYQQKQGKSPQLLVYNAKTLAEGVPSRFSGSGSGTQFSLKINSLQPEDFGSYYCQHHYGTPRTFGGGTKLEIKR
B1: the 平均蛍光強度(MFI) worked out at 3000.
